How the values were obtained:
Experiment in all cases: cell-based or functional assay
[1] = target: Env of HIV isolate 269-12 (clade AG) (HIV)
[2] = target: Env of HIV isolate X2278.C2.B6 (clade B) (HIV)
[3] = target: Env of HIV isolate T255-34 (clade AG) (HIV)
[4] = target: HIV Env of isolate NKU3006.ec1 (HIV)
[5] = target: HIV Env of isolate TV1.29 (HIV)
[6] = target: HIV Env of isolate 0077.v1.c16 (HIV)
[7] = target: Env of HIV isolate 16936-2.21 (clade C) (HIV)
[8] = target: HIV Env of isolate CNE58 (HIV)
[9] = target: Env of HIV isolate 235-47 (clade AG) (HIV)
[10] = target: Env of HIV isolate DU156.12 (clade C) (HIV)
[11] = target: Env of HIV isolate 271-11 (clade AG) (HIV)
[12] = target: Env of HIV isolate 6471.v1.c16 (clade C) (HIV)
[13] = target: Env of HIV isolate SC422.8 (clade B) (HIV)
[14] = target: 208-member cross-clade virus panel
[15] = target: Env of HIV isolate 3817.v2.c59 (clade CD) (HIV)
[16] = target: Env of HIV isolate X1254.c3 (clade G) (HIV)
[17] = target: Env of HIV isolate 0921.v2.c14 (clade C) (HIV)
[18] = target: Env of HIV isolate 288.38 (clade C) (HIV)
[19] = target: HIV Env of isolate CNE30 (HIV)
[20] = target: HIV Env of isolate UG021.16 (HIV)
[21] = target: HIV Env of isolate CNE40 (HIV)
[22] = target: Env of HIV isolate BI369.9A (clade A) (HIV)
[23] = target: Env of HIV isolate 7165.18 (clade B) (HIV)
[24] = target: HIV Env of isolate CH117.4 (HIV)
[25] = target: HIV Env of isolate 6644.v2.c33 (HIV)
[26] = target: HIV Env of isolate 3817.v2.c59 (HIV)
[27] = target: HIV Env of isolate X2088.c9 (HIV)
[28] = target: Env of HIV isolate SF162.LS (clade B) (HIV)
[29] = target: Env of HIV isolate 0815.v3.c3 (clade ACD) (HIV)
[30] = target: Env of HIV isolate C3347.c11 (clade AE) (HIV)
[31] = target: Env of HIV isolate CAP256.206.C9 (clade C) (HIV)
[32] = target: Env of HIV isolate C2101.c1 (clade AE) (HIV)
[33] = target: Env of HIV isolate X2131.C1.B5 (clade G) (HIV)
[34] = target: Env of HIV isolate 96ZM651.02 (clade C) (HIV)
[35] = target: Env of HIV isolate 3337.v2.c6 (clade CD) (HIV)
[36] = target: HIV Env of isolate CNE31 (HIV)
[37] = target: HIV Env of isolate DU172.17 (HIV)
[38] = target: Env of HIV isolate BJOX028000.10.3 (clade AE) (HIV)
[39] = target: Env of HIV isolate R1166.C1 (clade AE) (HIV)
[40] = target: HIV Env of isolate 16936-2.21 (HIV)
[41] = target: Env of HIV isolate 6785.v5.c14 (clade C) (HIV)
[42] = target: Env of HIV isolate Q23.17 (clade A) (HIV)
[43] = target: Env of HIV isolate 3326.v4.c3 (clade CD) (HIV)

B1: ePGT121.15 (ePGT121.15.H6 VH and ePGT121.15.L1 VL) (antibody, V domains shown)
VH: QMQLQESGPGLVKPGETLSLTCSVSGASISSSYWSWLRETPGKGLEWIGYTHHSGDTNYAPSLKSRVHLGLHPSKNQVSLSLTSVTAADTAVYYCARTLHGRRIYGVVAFNEFFTYFYWEVWGKGTQVTVSS
VL: SDISVAPGETVRISCGGESIGSRAVQWYQHRAGQAPKLIIYNNQDRPPGIPERFSGSPDIDFGTTATLTITNVEAGDEATYYCHIWDSRRPTNWVFGGGTTLTVL
B1 gave an IC50, pseudovirus neutralization [1] of 0.011 µg/mL, an IC50, pseudovirus neutralization [2] of 0.002 µg/mL and an IC50, pseudovirus neutralization [3] of 0.045 µg/mL. The IC80, pseudovirus neutralization [4] was > 50 µg/mL, the IC80, pseudovirus neutralization [5] was 0.01 µg/mL and the IC80, pseudovirus neutralization [6] was > 50 µg/mL. It also gave an IC50, pseudovirus neutralization [7] of 0.003 µg/mL, an IC80, pseudovirus neutralization [8] of 0.075 µg/mL and an IC50, pseudovirus neutralization [9] of 0.009 µg/mL. The IC50, pseudovirus neutralization [10] was 0.002 µg/mL, the IC50, pseudovirus neutralization [11] was > 50 µg/mL and the IC50, pseudovirus neutralization [12] was 1.04 µg/mL. For the same binder, the IC50, pseudovirus neutralization [13] was 0.011 µg/mL, the % vs Neutralized, IC50 < 0.01 ug/ml [14] was 49% and the % vs Neutralized, IC50 < 0.1 ug/ml [14] was 63%. It also gave a % vs Neutralized, IC50 < 1.0 ug/ml [14] of 70%, a % vs Neutralized, IC50 < 10 ug/ml [14] of 75% and a % vs Neutralized, IC50 < 50 ug/ml [14] of 77%. It also gave a % vs Neutralized, IC80 < 0.01 ug/ml [14] of 26.9%, a % vs Neutralized, IC80 < 0.1 ug/ml [14] of 56.2% and a % vs Neutralized, IC80 < 1.0 ug/ml [14] of 63.5%. For the same binder, the % vs Neutralized, IC80 < 10 ug/ml [14] was 70.2%, the % vs Neutralized, IC80 < 50 ug/ml [14] was 72.6% and the Geometric Mean (IC50) [14] was 0.0148 µg/mL. For the same binder, the Geometric Mean IC80 [14] was 0.0351 µg/mL, the Median IC50 [14] was 0.0055 µg/mL and the Median IC80 [14] was 0.015 µg/mL. For the same binder, the Total VS Neutralized, IC50 < 0.01 ug/ml (viruses of 208) [14] was 101, the Total VS Neutralized, IC50 < 0.1 ug/ml (viruses of 208) [14] was 130 and the Total VS Neutralized, IC50 < 1.0 ug/ml (viruses of 208) [14] was 145. It also gave a Total VS Neutralized, IC50 < 10 ug/ml (viruses of 208) [14] of 156, a Total VS Neutralized, IC50 < 50 ug/ml (viruses of 208) [14] of 160 and a Total VS Neutralized, IC80 < 0.01 ug/ml (viruses of 208) [14] of 56. It also gave a Total VS Neutralized, IC80 < 0.1 ug/ml (viruses of 208) [14] of 117, a Total VS Neutralized, IC80 < 1.0 ug/ml (viruses of 208) [14] of 132 and a Total VS Neutralized, IC80 < 10 ug/ml (viruses of 208) [14] of 146. The Total VS Neutralized, IC80 < 50 ug/ml (viruses of 208) [14] was 151, the IC50, pseudovirus neutralization [15] was 0.984 µg/mL and the IC50, pseudovirus neutralization [16] was 0.004 µg/mL. The IC50, pseudovirus neutralization [17] was 0.454 µg/mL, the IC50, pseudovirus neutralization [18] was 0.001 µg/mL and the IC80, pseudovirus neutralization [19] was 0.027 µg/mL. The IC80, pseudovirus neutralization [20] was 0.022 µg/mL, the IC80, pseudovirus neutralization [21] was 0.082 µg/mL and the IC50, pseudovirus neutralization [22] was 0.002 µg/mL. The IC50, pseudovirus neutralization [23] was 0.003 µg/mL, the IC80, pseudovirus neutralization [24] was > 50 µg/mL and the IC80, pseudovirus neutralization [25] was 0.008 µg/mL. For the same binder, the IC80, pseudovirus neutralization [26] was 7.22 µg/mL, the IC80, pseudovirus neutralization [27] was 0.01 µg/mL and the IC50, pseudovirus neutralization [28] was 0.003 µg/mL. The IC50, pseudovirus neutralization [29] was 0.002 µg/mL, the IC50, pseudovirus neutralization [30] was > 50 µg/mL and the IC50, pseudovirus neutralization [31] was 0.003 µg/mL. The IC50, pseudovirus neutralization [32] was > 50 µg/mL, the IC50, pseudovirus neutralization [33] was 0.002 µg/mL and the IC50, pseudovirus neutralization [34] was 0.001 µg/mL. It also gave an IC50, pseudovirus neutralization [35] of 0.589 µg/mL, an IC80, pseudovirus neutralization [36] of 0.147 µg/mL and an IC80, pseudovirus neutralization [37] of 0.007 µg/mL. The IC50, pseudovirus neutralization [38] was 0.363 µg/mL, the IC50, pseudovirus neutralization [39] was > 50 µg/mL and the IC80, pseudovirus neutralization [40] was 0.007 µg/mL. For the same binder, the IC50, pseudovirus neutralization [41] was 0.004 µg/mL, the IC50, pseudovirus neutralization [42] was 0.003 µg/mL and the IC50, pseudovirus neutralization [43] was 0.362 µg/mL.

Reference: patent US20210292396A1
